Assay results taken from PMC5068707 (PLoS Pathogens, 2016).
Where no end group is shown, it is not given here.

B4: Ebola virus VP30 C-terminal domain (amino acids 139–288) (domain or fragment)
chain: GPKITLLTLIKTAEHWARQDIRTIEDSKLRALLTLCAVMTRKFSKSQLSLLCETHLRREGLGQDQAEPVLEVYQRLHSDKGGSFEAALWQQWDRQSLIMFITAFLNIALQLPCESSAVVVSGLRTLVPQSDNEEASTNPGTCSWSDEGTP

Columns and labels:
[1] = biological target: MARV NP 552-579-VP30 146–281 fusion protein (Marburg virus (MARV)) (UniProt P27588); test: crystal structure
[2] = biological target: B4; test: BLI; conditions: both partners purified
[3] = biological target: B4; test: crystal structure; conditions: both partners purified
MARV VP30 CTD (146–281) = biological target: T1, MARV VP30 CTD (146–281) (Marburg virus (MARV), UniProt P35258 146-281); test: ITC; conditions: both partners purified
T1 sequence: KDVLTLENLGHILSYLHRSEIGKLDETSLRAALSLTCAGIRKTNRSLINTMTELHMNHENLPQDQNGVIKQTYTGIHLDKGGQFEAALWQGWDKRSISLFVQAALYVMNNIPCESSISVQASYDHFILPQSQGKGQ

[4] = biological target: T2, EBOV NP C-terminal portion (360–739) (Ebola virus (EBOV), UniProt P18272 360-739); test: ITC; conditions: both partners purified
T2 sequence: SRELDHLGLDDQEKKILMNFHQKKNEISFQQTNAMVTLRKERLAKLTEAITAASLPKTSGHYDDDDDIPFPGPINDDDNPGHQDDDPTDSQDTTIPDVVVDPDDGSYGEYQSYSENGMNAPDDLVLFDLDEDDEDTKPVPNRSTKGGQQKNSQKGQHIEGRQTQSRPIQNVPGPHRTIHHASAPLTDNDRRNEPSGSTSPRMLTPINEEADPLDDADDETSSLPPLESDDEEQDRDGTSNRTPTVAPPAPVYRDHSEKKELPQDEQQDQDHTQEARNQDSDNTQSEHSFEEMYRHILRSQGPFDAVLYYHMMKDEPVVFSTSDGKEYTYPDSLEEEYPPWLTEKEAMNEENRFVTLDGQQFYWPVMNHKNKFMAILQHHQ

“MARV NP 552-579-VP30 146–281 fusion protein (from UniProt P27588;P35258)” gave a stoichiometry N [1] of 2.

B1: biotinylated EBOV NP peptide 580–617 (peptide)
chain: SSLPPLESDDEEQDRDGTSNRTPTVAPPAPVYRDHSEK
modifications: not fully specified (N-terminus); also: biotinylated (position not given here)
B1: binds [2].

B2: EBOV NP peptide (600–627), as the N-terminal part of the NP-VP30 fusion (peptide)
chain: RTPTVAPPAPVYRDHSEKKELPQDEQQD
B2: binds [3].

B3: MARV NP peptide (552–569) fused to T4 lysozyme (peptide)
chain: EQGVDLPPPPLYAQEKRQ
Molecule B3 has a Kd (MARV VP30 CTD (146–281)) of 14 µM.

Work on B4 yielded a Kd [4] of 21.3 µM.

B5: biotinylated EBOV NP peptide 560–617 (peptide)
chain: RMLTPINEEADPLDDADDETSSLPPLESDDEEQDRDGTSNRTPTVAPPAPVYRDHSEK
modifications: not fully specified (N-terminus); also: biotinylated (position not given here)
B5: binds [2].
